Results reported in the DeepSol protein solubility set.

Experiment: soluble on expression in E. coli; label from the status in PepcDB or PDB records

Sequence	soluble on expression in E. coli
MAHHHHHHMDRQVINLEEILPFSYTRDVELVPMYCFEVKKEVAKDALNIMKDYINNQLYDKYNHLKRCRKCTDSVQILIGACNHIPFELSQKLIEKMKQENNNDEFNDIIITKIMVSKYAPITRKQYIEWSTYWPLYFRKPDKDILILTKEEINKYIKLLYISIDIGKQFGTCNSGCIITYNDEIIASSGDNIKNHPLHHAPMLAIEQVSYKLRHIWLNKQTEKNNLQKKMKIIHKQQINNRDSLNDHKHENNKSNHNILIDHIPNDQYLCTNFFAFLSHEPCYMCAMALLHSRIKCVIFDKENKNNGALSSQEKLHCIKNLNHHFKVFKTIRG	not soluble
MAHHHHHHMEAPAVYCVSDAAASLTMADDWIRGLSRQRHRSMCEVDAVFPVSRTRERTEMDEAETASSYSDSVTSVPTNRLQLHMMHRRRLYKQYAMDLSMWADTHSYYQLMMWCHDHHVFVHPTVEMVRHRSAFREHVFEVKEDVDAFTPLLAIPEDLIIGFKDANTESSDPSASTDDRNNLYDAKREAEFHKLNTGENSNADICQFFFASLGMIVSDLITAKSSPLTDPRHLFAELLSKVPTLQNAPYFDEEVVFDSNETCLADVLLQMIRNYINGGPLVNKVPLHELRWAVSVSLSHSTPLSIGAVRSIGIVPVVHLFPHGGTATNAYVVARTSRDKSAEKMAIFFREKFGYDFQGQANAKWIYVVPERPLKAGEAINLQVMAPVCEKDSEAEQMWRLSCGTVPESYMSSAQASARQEAATRFIVEQGEALWKASRAKRLL	not soluble
MAHHHHHHMEGEEVPLVQPFRQHREQCRVKLQEIGPRMTLQLSKVENGFAGGEVIYHRTEKKTLREVQVNASKVRARKTEKAKRRALQDENVQRKRQKREDKLERKHQRREAAAEAQQANPFEVAHGDGDGDGYAAGDEE	not soluble
MAHHHHHHMEKDGYTKLSEEEEQQLDNCRACMALTAVFMEEVMKPTEKLQHQLHQQQQQEGSAPRTPKNSDAVRSGERQRLVTNVHDAIDKLCDRVKERNNQVDASYDKGKEERDEKSESTEGGPIWYVSVNTAACEVALEEVSEALAREAFAQLLPERVAGTRGGGPSAVCEQENLCTARLSQHVKSEEEKAKAELEKEMRRQRELSRKNPKETLALQRAVAVGVGIMVIALWLRGRQSAKPEGDVKKD	not soluble
MAHHHHHHMENLYFQGMSSFLPEGGCYELLTVIGKGFEDLMTVNLARYKPTGEYVTVRRINLEACSNEMVTFLQGELHVSKLFNHPNIVPYRATFIADNELWVVTSFMAYGSAKDLICTHFMDGMNELAIAYILQGVLKALDYIHHMGYVHRSVKASHILISVDGKVYLSGLRSNLSMISHGQRQRVVHDFPKYSVKVLPWLSPEVLQQNLQGYDAKSDIYSVGITACELANGHVPFKDMPATQMLLEKLNGTVPCLLDTSTIPAEELTMSPSRSVANSGLSDSLTTSTPRPSNGDSPSHPYHRTFSPHFHHFVEQCLQRNPDARPSASTLLNHSFFKQIKRRASEALPELLRPVTPITNFEGSQSQDHSGIFGLVTNLEELEVDDWEF	soluble
MAHHHHHHMERFRSEDVAEGAFTLNLDECGASLIELHAPLNGLAFMMQDAVVAQLAMGSTLAGSDAAKAPQDDHDGTTVNFRTLSTSAAGAIDALLSEMSARRVHFVSGVVTDAMLDVEGVTIIDPLPLEPRLNRFQRNMIRLSLTLEQQFFLLAEYLGNTSGGCAHGVIGSGEAAALAVDVWRVAGFCDALVDHLWWRGRCVCGGPFSWRCRWDCAARGVARRCARACRVLGVFTPAR	not soluble
MAHHHHHHMFLRPHEINILMNEMKIIYEFKKEYYEIILNENNADDNVIDLFEKNTNKCNIEIKPYDDINSDLLDFDQFKMFNIDKDDIKKKNEDKKDEDRIKYILDKESYNNSIDKLNDNSCDESCYITDDELCKQINNPFDNTYNNKFVVKYKEYFEENSFIVKKGDIYGADFLLYITEQKYAHSLYAVYIIYKHYILRDLIRILRVSHSIKKKVILILWNELNCFNISDTLVYIKSYKYK	soluble
MAHHHHHHMGCSGSKNASNPKDGAASKGGKDGKTTADRKVAWERIRCAIPRDKDAESKSRRIELFKRFDTNGTGKLGFREVLDGCYSVLKLDEFTTHLPDIVQRAFDKAKDLGNKVKGVGEEDLVEFLEFRLMLCYIYDIFELTVMFDTMDKDGSLLIELQEFKEALPKLKEWGVDITDATTVFNEIDTNGSGVVTFDEFSCWAVTKKLQVCGDPDGEGNGANEGDGANAGDGVPAAEGSA	soluble
MAHHHHHHMGGHGGLNILPQKKWNVYRKDAQYKVHYDEHKIIKEEKDKEIKRKKDEFESTISTLKKNMTKNEDSDNNYNNFYDENGEKKTTTNYCNDHINLFIDEEKELTAKQKKHEEFLIKKGHYIYYDKNFNTQHNSIYDKNKNAQIISDFNKMKLCERDWFLNKKNKNEKTKDNGANFFHIQKDNISEEHNKTENINSDLSLYCNTNNYITHDKKKEKKQMHYHIKKIIKYKQEKDKEKKRKRQGKEKKKPK	not soluble
MAHHHHHHMGLKFYVLVFLILCLKNVVKGDKCETEFSKLYPESNSLTGLIYAHTANVHKLSMWVYFIYNHFSSADELIKYLEKTNINTLENSDHTCFARAVTLYLFYYYLKDIKSMLSTDDYQSFFKNKFKDINPLFINDFILILNDKKFMENLDLYIMKESEREHLVIKKNPFLRVLNKASTTTHATYKSNPYFIVGSRVHTPYKDYLGDFNKYTEISVLNYVRDYNFLIYAGSRENYYNSDIAGPARSVNNVISKNKTLGLRKRSSSLALVGTNNNDPIFAYCEKDNKSEYYGTPDDLITSFFSIIKTKMLNSHKTFLRQFDYALFHKTYSIPNLKGFRFLKHLFQKKNLVNFVGMYENHVSTEINFLAEDFVELFDVTMDCYSRQYSNRAAENFKAIRELNVL	not soluble
MAHHHHHHMGNKISTEDHIFRLKLKTKELEKLSQRSELEEKKLIGDVKKAIQAGKIELARLYAEKCIRKKNEKVNYLNLSNKLDVLVSRLEGAHRCASLVKDVGVMIPLIQKINAETNAIKIGNDVTKLENIFDEISISSELINDTVQTSSAISAPTEEVDELISKIADEHALKLDGQIGSVHPINKHLEEISNMSERIKNLK	soluble
MAHHHHHHMGTLEAQTQGPGSMFITFEGIDGSGKTTQSHLLAEYLSEIYGVNNVVLTREPGGTLLNESVRNLLFKAQGLDSLSELLFFIAMRREHFVKIIKPSLMQKKIVICDRFIDSTIAYQGYGQGIDCSLIDQLNDLVIDVYPDITFIIDVDINESLSRSCKNGYEFADMEFYYRVRDGFYDIAKKNPHRCHVITDKSETYDIDDINFVHLEVIKVLQMV	soluble
MAHHHHHHMGTLEAQTQGPGSMQMNMVETEPVQGCRDFPPETMRLRKYLFDVFHSTARKFGFEEYDSPVLESEELYIRKAGEEITEQMFNFITKGGHRVALRPEMTPSLARQLLAKGRSLLLPAKWYSIPQCWRYEAITRGRRREHYQWNMDIIGVKSVSSEVELVCAACTAMQSLGLSSKDVGVKINSRKILQTVVEQAGVSADKFAPVCVIVDKMEKLPREEVVAQLAAIGLESNVVDAITSTLSLKTIDEIAQRIGEEHEAVRELRDFITQIEAYGFGDWVIFDASVVRGLAYYTGIVFEGFDRDGNFRALCGGGRYDNLLTTYGSPTAVPCVGFGFGDCVIVELLNEKKLLPELHHVVDDLVIPFDETMRPHALSILRRLRDAGRSADIVFDKKKVVQAFNYADRIGALRAVLVAPDEWARGEVRVKMLREGAGREEGANERGIVLPVDKIV	soluble
MAHHHHHHMGTLEAQTQGPGSMSEPLLLQDRDERGVVTLTLNRPQAFNALSEAMLAALGEAFGTLAEDESVRAVVLAASGKAFCAGHDLKEMRAEPSREYYEKLFARCTDVMLAIQRLPAPVIARVHGIATAAGCQLVAMCDLAVATRDARFAVSGINVGLFCSTPGVALSRNVGRKAAFEMLVTGEFVSADDAKGLGLVNRVVAPKALDDEIEAMVSKIVAKPRAAVAMGKALFYRQIETDIESAYADAGTTMACNMMDPSALEGVSAFLEKRRPEWHTPQPSTA	soluble
MAHHHHHHMGTLEAQTQGPGSMSFSNVPAGKDLPQDFNVIIEIPAQSEPVKYEADKALGLLVVDRFIGTGMRYPVNYGFIPQTLSGDGDPVDVLVITPFPLLAGSVVRARALGMLKMTDESGVDAKLVAVPHDKVCPMTANLKSIDDVPAYLKDQIKHFFEQYKALEKGKWVKVEGWDGIDAAHKEITDGVANFKK	soluble
